Measured values published in article PMC12225687.

Assays:
Assay in all cases: flow cytometry on cells; PE-labelled pMHC multimer (HLA-A*02:01 with the … peptide) stained on Jurkat J1601 cells (human CD8α/β, TCRα/β CRISPR-KO) electroporated with TCR RNA, after overnight incubation; read-out % multimer+CD8+ cells, averages of two independent replicates
1G4 TCR (human) = target: 1G4 TCR (human)
1G4-c50 TCR (human) = target: 1G4-c50 TCR (human)
1G4-c53c50 TCR (human) = target: 1G4-c53c50 TCR (human)

- % of multimer+CD8+ Jurkat cells (1G4 TCR (human)): 90.9%
- % of multimer+CD8+ Jurkat cells (1G4-c50 TCR (human)): 99.6%
- % of multimer+CD8+ Jurkat cells (1G4-c53c50 TCR (human)): 99.1%
Substance: HLA-A*02:01 with the NY-ESO-1 157-165 peptide …, PE-labelled multimer (from UniProt P61769 21-119) (peptide-MHC)
